Test in all cases: Carterra HC30M chip, antibody captured via anti-DYKDDDDK, PD-L1 as analyte
Experiment [1] concerns the target T1, mouse PD-L1 protein (ACRO, PD1-M5251) (mouse, UniProt Q9EP73 19-238).
T1 construct: Bought protein; also called Mouse PDL1-Fc
How it is done:
(§1) The anti-[…] antibody was bound to the HC30M chip via amino coupling, then 2 μg/mL of humanized PD-L1 single-domain antibody was captured. […] Kinetic constants were obtained by fitting with Carteria software.

In experiment [2] the target is T2, human PD-L1 protein (ACRO, PD1-H5258) (human, UniProt Q9NZQ7 19-238).
T2 construct: Bought protein; also called Human PDL1-Fc
T2 sequence (Q9NZQ7 19-238): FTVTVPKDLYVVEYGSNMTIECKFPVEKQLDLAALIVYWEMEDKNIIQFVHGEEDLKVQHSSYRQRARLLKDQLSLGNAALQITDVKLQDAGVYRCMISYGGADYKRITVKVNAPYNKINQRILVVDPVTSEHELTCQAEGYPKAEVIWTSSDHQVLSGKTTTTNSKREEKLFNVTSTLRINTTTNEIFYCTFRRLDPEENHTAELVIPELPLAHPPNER
How it is done: as §1

Experiment [3] deals with T3, monkey PD-L1 protein (Kactus Biosystems, PDL-CM210) (monkey).
T3 construct: Bought protein; also called Monkey PDL1-Fc
The procedure: as §1

One may read the Kd as the equilibrium constant for the complex coming apart.

T1 sequence (Q9EP73 19-238): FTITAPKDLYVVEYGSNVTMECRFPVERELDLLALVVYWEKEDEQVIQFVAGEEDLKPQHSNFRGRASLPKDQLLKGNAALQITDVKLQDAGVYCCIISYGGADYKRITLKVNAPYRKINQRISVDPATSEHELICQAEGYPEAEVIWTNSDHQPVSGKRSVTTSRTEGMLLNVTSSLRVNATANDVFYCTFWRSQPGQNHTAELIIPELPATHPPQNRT

B1: 4A7 hu-5 (Fc fusion)
chain: EVQLLESGGGLVQPGGSLRLSCAASGRTFSTNVMGWFRQAPGKGLEFVSAISRAGSTYSADSVKGRFTISRDNSKNTLYLQMNSLRAEDTAVYYCAAGSSPTAIFGKSGMDYWGQGTQVTVSSGGGGSGGGGSDKTHTCPPCPAPEAAGAPSVFLFPPKPKDTLMISRTPEVTCVVVDVSHEDPEVKFNWYVDGVEVHNAKTKPREEQYNSTYRVVSVLTVLHQDWLNGKEYKCAVSNKALPAPIEKTISKAKGQPREPQVYTLPPSRDELTKNQVSLTCLVKGFYPSDIAVEWESNGQPENNYKTTPPVLDSDGSFFLYSKLTVDKSRWQQGNVFSCSVMHEALHNHYTQKSLSLSP
notes: Humanized VHH-Fc antibody
With B1, the Kd in experiment [1] came to 9.72 nM; in experiment [2] it was 141 nM; in experiment [3], 94.3 nM.

B2: 4A7 hu-13 (Fc fusion)
chain: EVQLLESGGGLVQPGGSLRLSCAASGRTFSSYVMGWFRQAPGKGLEFVSAISRAGSTYSADSVKGRFTISRDNSKNTLYLQMNSLRAEDTAVYYCAAGSSPTAIFGKSGMDYWGQGTQVTVSSGGGGSGGGGSDKTHTCPPCPAPEAAGAPSVFLFPPKPKDTLMISRTPEVTCVVVDVSHEDPEVKFNWYVDGVEVHNAKTKPREEQYNSTYRVVSVLTVLHQDWLNGKEYKCAVSNKALPAPIEKTISKAKGQPREPQVYTLPPSRDELTKNQVSLTCLVKGFYPSDIAVEWESNGQPENNYKTTPPVLDSDGSFFLYSKLTVDKSRWQQGNVFSCSVMHEALHNHYTQKSLSLSP
notes: Humanized VHH-Fc antibody
As for B2, the values for the dissociation constant Kd in experiment [1], in experiment [2] and in experiment [3] were 10.7 nM, 58.7 nM and 72.8 nM, respectively.

B3: 4A7 hu-8 (Fc fusion)
chain: EVQLLESGGGLVQPGGSLRLSCAASGRTFSTNVMGWFRQAPGKEREFVSAISRAGSTYSADSVKGRFTISRDNSKNTLYLQMNSLRAEDTAVYYCAAGSSPTAIFGKSGMDYWGQGTQVTVSSGGGGSGGGGSDKTHTCPPCPAPEAAGAPSVFLFPPKPKDTLMISRTPEVTCVVVDVSHEDPEVKFNWYVDGVEVHNAKTKPREEQYNSTYRVVSVLTVLHQDWLNGKEYKCAVSNKALPAPIEKTISKAKGQPREPQVYTLPPSRDELTKNQVSLTCLVKGFYPSDIAVEWESNGQPENNYKTTPPVLDSDGSFFLYSKLTVDKSRWQQGNVFSCSVMHEALHNHYTQKSLSLSP
notes: Humanized VHH-Fc antibody
Consider B3, for which the Kd was 10.4 nM in experiment [1], 92.7 nM in experiment [2] and 57.5 nM in experiment [3].

B4: 4A7 hu-15 (Fc fusion)
chain: EVQLLESGGGLVQPGGSLRLSCAASGRTFSSYVMGWFRQAPGKGREFVSAISRAGSTYSADSVKGRFTISRDNSKNTLYLQMNSLRAEDTAVYYCAAGSSPTAIFGKSGMDYWGQGTQVTVSSGGGGSGGGGSDKTHTCPPCPAPEAAGAPSVFLFPPKPKDTLMISRTPEVTCVVVDVSHEDPEVKFNWYVDGVEVHNAKTKPREEQYNSTYRVVSVLTVLHQDWLNGKEYKCAVSNKALPAPIEKTISKAKGQPREPQVYTLPPSRDELTKNQVSLTCLVKGFYPSDIAVEWESNGQPENNYKTTPPVLDSDGSFFLYSKLTVDKSRWQQGNVFSCSVMHEALHNHYTQKSLSLSP
notes: Humanized VHH-Fc antibody
On to B4, for which the values for the Kd in experiment [1], in experiment [2] and in experiment [3] were 9.97 nM, 54.9 nM and 60.7 nM, respectively.

B5: 4A7 hu-11 (Fc fusion)
chain: EVQLLESGGGLVQPGGSLRLSCAASGRTFSSYVMGWFRQAPGKGLEWVSAISRAGSTYSADSVKGRFTISRDNSKNTLYLQMNSLRAEDTAVYYCAAGSSPTAIFGKSGMDYWGQGTQVTVSSGGGGSGGGGSDKTHTCPPCPAPEAAGAPSVFLFPPKPKDTLMISRTPEVTCVVVDVSHEDPEVKFNWYVDGVEVHNAKTKPREEQYNSTYRVVSVLTVLHQDWLNGKEYKCAVSNKALPAPIEKTISKAKGQPREPQVYTLPPSRDELTKNQVSLTCLVKGFYPSDIAVEWESNGQPENNYKTTPPVLDSDGSFFLYSKLTVDKSRWQQGNVFSCSVMHEALHNHYTQKSLSLSP
notes: Humanized VHH-Fc antibody
B5: the dissociation constant Kd in experiment [1] was 154 nM; in experiment [2], 796 nM; in experiment [3], 828 nM.

B6: 4A7 hu-14 (Fc fusion)
chain: EVQLLESGGGLVQAGGSLRLSCAASGRTFSSYVMGWFRQAPGKGLEFVSAISRAGSTYSADSVKGRFTISRDNSKNTLYLQMNSLRAEDTAVYYCAAGSSPTAIFGKSGMDYWGQGTQVTVSSGGGGSGGGGSDKTHTCPPCPAPEAAGAPSVFLFPPKPKDTLMISRTPEVTCVVVDVSHEDPEVKFNWYVDGVEVHNAKTKPREEQYNSTYRVVSVLTVLHQDWLNGKEYKCAVSNKALPAPIEKTISKAKGQPREPQVYTLPPSRDELTKNQVSLTCLVKGFYPSDIAVEWESNGQPENNYKTTPPVLDSDGSFFLYSKLTVDKSRWQQGNVFSCSVMHEALHNHYTQKSLSLSP
notes: Humanized VHH-Fc antibody
On to B6, for which the Kd stood at 9.7 nM in experiment [1], 60.9 nM in experiment [2] and 76.5 nM in experiment [3].

B7: 4A7 hu-3 (Fc fusion)
chain: EVQLLESGGGLVQPGGSLRLSCAASGRTFSTNVMGWFRQAPGKGLEWVSAISRAGSTYSADSVKGRFTISRDNSKNTLYLQMNSLRAEDTAVYYCAAGSSPTAIFGKSGMDYWGQGTQVTVSSGGGGSGGGGSDKTHTCPPCPAPEAAGAPSVFLFPPKPKDTLMISRTPEVTCVVVDVSHEDPEVKFNWYVDGVEVHNAKTKPREEQYNSTYRVVSVLTVLHQDWLNGKEYKCAVSNKALPAPIEKTISKAKGQPREPQVYTLPPSRDELTKNQVSLTCLVKGFYPSDIAVEWESNGQPENNYKTTPPVLDSDGSFFLYSKLTVDKSRWQQGNVFSCSVMHEALHNHYTQKSLSLSP
notes: Humanized VHH-Fc antibody
As for B7, the Kd in experiment [1] is 122 nM; in experiment [2], 1630 nM; in experiment [3], 599 nM.

B8: 4A7 hu-12 (Fc fusion)
chain: EVQLLESGGGLVQPGGSLRLSCAASGRTFSSYVMGWVRQAPGKGLEFVSAISRAGSTYSADSVKGRFTISRDNSKNTLYLQMNSLRAEDTAVYYCAAGSSPTAIFGKSGMDYWGQGTQVTVSSGGGGSGGGGSDKTHTCPPCPAPEAAGAPSVFLFPPKPKDTLMISRTPEVTCVVVDVSHEDPEVKFNWYVDGVEVHNAKTKPREEQYNSTYRVVSVLTVLHQDWLNGKEYKCAVSNKALPAPIEKTISKAKGQPREPQVYTLPPSRDELTKNQVSLTCLVKGFYPSDIAVEWESNGQPENNYKTTPPVLDSDGSFFLYSKLTVDKSRWQQGNVFSCSVMHEALHNHYTQKSLSLSP
notes: Humanized VHH-Fc antibody
As to B8, the results for the equilibrium dissociation constant (Kd) in experiment [1], in experiment [2] and in experiment [3] were 19.5 nM, 79 nM and 94.5 nM, respectively.

B9: 4A7 hu-9 (Fc fusion)
chain: EVQLLESGGGLVQPGGSLRLSCAASGRTFSSYVMSWVRQAPGKGLEWVSAISRAGSTYYADSVKGRFTISRDNSKNTLYLQMNSLRAEDTAVYYCAAGSSPTAIFGKSGMDYWGQGTQVTVSSGGGGSGGGGSDKTHTCPPCPAPEAAGAPSVFLFPPKPKDTLMISRTPEVTCVVVDVSHEDPEVKFNWYVDGVEVHNAKTKPREEQYNSTYRVVSVLTVLHQDWLNGKEYKCAVSNKALPAPIEKTISKAKGQPREPQVYTLPPSRDELTKNQVSLTCLVKGFYPSDIAVEWESNGQPENNYKTTPPVLDSDGSFFLYSKLTVDKSRWQQGNVFSCSVMHEALHNHYTQKSLSLSP
notes: Humanized VHH-Fc antibody
B9: the dissociation constant (Kd) was found to be 146 nM in experiment [1], 652 nM in experiment [2] and 609 nM in experiment [3].

B10: 4A7 hu-6 (Fc fusion)
chain: EVQLLESGGGLVQAGGSLRLSCAASGRTFSTNVMGWFRQAPGKGLEFVSAISRAGSTYSADSVKGRFTISRDNSKNTLYLQMNSLRAEDTAVYYCAAGSSPTAIFGKSGMDYWGQGTQVTVSSGGGGSGGGGSDKTHTCPPCPAPEAAGAPSVFLFPPKPKDTLMISRTPEVTCVVVDVSHEDPEVKFNWYVDGVEVHNAKTKPREEQYNSTYRVVSVLTVLHQDWLNGKEYKCAVSNKALPAPIEKTISKAKGQPREPQVYTLPPSRDELTKNQVSLTCLVKGFYPSDIAVEWESNGQPENNYKTTPPVLDSDGSFFLYSKLTVDKSRWQQGNVFSCSVMHEALHNHYTQKSLSLSP
notes: Humanized VHH-Fc antibody
Take B10: the Kd in experiment [1] was determined as 9.59 nM; in experiment [2], 136 nM; in experiment [3], 99 nM.

B11: 4A7 hu-4 (Fc fusion)
chain: EVQLLESGGGLVQPGGSLRLSCAASGRTFSTNVMGWVRQAPGKGLEFVSAISRAGSTYSADSVKGRFTISRDNSKNTLYLQMNSLRAEDTAVYYCAAGSSPTAIFGKSGMDYWGQGTQVTVSSGGGGSGGGGSDKTHTCPPCPAPEAAGAPSVFLFPPKPKDTLMISRTPEVTCVVVDVSHEDPEVKFNWYVDGVEVHNAKTKPREEQYNSTYRVVSVLTVLHQDWLNGKEYKCAVSNKALPAPIEKTISKAKGQPREPQVYTLPPSRDELTKNQVSLTCLVKGFYPSDIAVEWESNGQPENNYKTTPPVLDSDGSFFLYSKLTVDKSRWQQGNVFSCSVMHEALHNHYTQKSLSLSP
notes: Humanized VHH-Fc antibody
Turning to B11, the Kd in experiment [1] stood at 21 nM; in experiment [2], 175 nM; in experiment [3], 112 nM.

B12: 4A7 hu-7 (Fc fusion)
chain: EVQLLESGGGLVQPGGSLRLSCAASGRTFSTNVMGWFRQAPGKGREFVSAISRAGSTYSADSVKGRFTISRDNSKNTLYLQMNSLRAEDTAVYYCAAGSSPTAIFGKSGMDYWGQGTQVTVSSGGGGSGGGGSDKTHTCPPCPAPEAAGAPSVFLFPPKPKDTLMISRTPEVTCVVVDVSHEDPEVKFNWYVDGVEVHNAKTKPREEQYNSTYRVVSVLTVLHQDWLNGKEYKCAVSNKALPAPIEKTISKAKGQPREPQVYTLPPSRDELTKNQVSLTCLVKGFYPSDIAVEWESNGQPENNYKTTPPVLDSDGSFFLYSKLTVDKSRWQQGNVFSCSVMHEALHNHYTQKSLSLSP
notes: Humanized VHH-Fc antibody
For B12, the Kd came to 9.76 nM in experiment [1], 127 nM in experiment [2] and 61.7 nM in experiment [3].

B13: 4A7 hu-10 (Fc fusion)
chain: EVQLLESGGGLVQPGGSLRLSCAASGRTFSSYVMGWVRQAPGKGLEWVSAISRAGSTYSADSVKGRFTISRDNSKNTLYLQMNSLRAEDTAVYYCAAGSSPTAIFGKSGMDYWGQGTQVTVSSGGGGSGGGGSDKTHTCPPCPAPEAAGAPSVFLFPPKPKDTLMISRTPEVTCVVVDVSHEDPEVKFNWYVDGVEVHNAKTKPREEQYNSTYRVVSVLTVLHQDWLNGKEYKCAVSNKALPAPIEKTISKAKGQPREPQVYTLPPSRDELTKNQVSLTCLVKGFYPSDIAVEWESNGQPENNYKTTPPVLDSDGSFFLYSKLTVDKSRWQQGNVFSCSVMHEALHNHYTQKSLSLSP
notes: Humanized VHH-Fc antibody
For B13, the Kd in experiment [1] stood at 197 nM; in experiment [2], 805 nM; in experiment [3] it was 622 nM.

(Values after US20260201058A1 (SICHUAN HUIYU PHARMACEUTICAL, published 2026).)
